Molecular target: natural affinity purified heavy chain class I K^d molecules
Assay: binding to natural class I heavy chain molecules, format not given (follows the binding inhibition experiment)

affinity, times lower than that of the (human) β2-microglobulin: 5 times lower
Substance: Recombinant murine β2-microglobulin

Source: patent US5739281
